Test: soluble on expression in E. coli; label from the status in PepcDB or PDB records

Soluble on expression in E. coli, not soluble:
MGSDKIHHHHHHMYKNSMVIGKFYPPHAGHAHLINTAAAQSENVSVLVLGNRFESITVADRTTWLAAEFEDIAGVHVIGMPNDCPEDYDSEEIWKAQSELMRLALKTHGVTEVEAVFSSEEYGAQLAQAFGAEHVLVDQSRTTFPISGTLCRDDLGSAWPFIIGPARQGLATRIILVGAESSGTSTLAKALTEHYRPRFPGITDVPEYGRDYTYEKFDALRAKMPEAVLEDMVWNEQDFGRIATRQNEMENAAADACPLVIADTDSLATTLWERFYIGERSYGSYLAASNLPPRDLYLITDHEGVEFEDDGWREGEHRRAEMTEWFKEALTAEGHSWILVSGDHERRKQTAVEIIELILMQRSKFTSPPWATRTVLEGAAV
MGSDKIHHHHHHMYSCYNNFVKYALTMQFDIEVDVMYEVKLDAFNGPLDLLLHLIQKYEIDIYDIPMKALTEQYMQYVHAMNQLEINVASEYLVMASELLMIKSKLLLPQTSIEEDIEEDPREDLVGRLIEYQNYKEYTEILNTMKEERDLYFTKHPTDLTHLETNESWDPNQTIDLTELIVAYQRVKNRVELNTPKSVEIKKETFTIQQATAQVTERLKQHESFNFFSLFTFHEPVEQVVTHFLAILEMSKSGIVNIKQTKQFDDIDIIRGVNYSIG
MGSDKIHHHHHHMYSIVEGDRVLEIGFMEHFMFLDFPTLVDIPIGLPKKGERECDRLTRRILSKRAASVFTVPCRVAVYRESYEDALRVNRECQGKGFPVQFWHIVEKVREVDVFLRSYPDLSDQIRESHPELCFLRISSKMMKSKHTREGLNQRIEILREHLVFDVENLQRICREYRIHIHDVLDSLVLALAQQFPLERIPEDPPLDEHGLPMQIIAPARTQRSPNPE
MGSDKIHHHHHHMYVENACYQKAILPEHVGNALIESLPKKLTDEELVDKLANYPKCLTEDTQNDPEIRAEYLTRIKRLRQPQLVYFDVFRAVEIAIKDGYSAKNPLSPTTMNYLHYSLEDRPIIEPNTGFFKPKGCGITIIGESGVGKTSMLEQVLSIYPDVIKHQSYSGMSLPLTQVVWLKVDCPDDSSVKGLCHRILDEIDRKLDIKDTKPQNTIALLIKQIEAKMKSNYLGILVIDEMQNLNTAKAGGAERLLGFLHNLMNNLGIPILFCANPPFDKLLSKTLKAARRAESGGYFDIGLLKNSEDEWGLFVDELWKLQWTNVQTPLTQDLSDRLFNLSVGNMDLAVRIFYASQRAVIGSLNERITTDVLDKGASIAIRASKSTTDELRLSLLKRKNESKKETPNNEASEEAKVITESKGKFVTIPGDLSRPHHPEFAERITELQYEDDLHALIEDPALIQRASEEEHPLDMLKSAGLFCEDPLKTFG
MGSDKIHHHHHHNEEIEKAVQPVEISFNTAVSKTTRATTLVNSAFTKFTAYAYSTTGAFADATKVNALISGAEFTKGENSAWGSGNSVFYWPATDQVSFFAFSPNTTKQLSWGAAVANTAPTLTYTVEGTVEKQEDLVVAEAMNKQKATSGSTEAVALNFKHALTKVGFKIKGEGSGVTYTLNKIVINAKNKGVYTYGATSTTNETTLGTWTIPSDATATAYTVEPTEALSITGADNGGTANETLVEADYTAMLIPQNLTGVTFEIYYKAEAGGAILCDKTTTPEEITFTDGTWTAGQSVAYVLTLKGVEKMSITGSVADSWDFTETPK
MGSDKIHHHHHHQEGRSDPLEGFNRTMFNFNYDVLDPYVVRPAAVAWRDYVPTPARNGLGNFFNNLEEPATMVNYFVEGKPYKAMIHFNRFFLNTLLGMGGLIDVASMANPKLAKEESRRFGSTLGNYGVGYGPYVVLPGYGSVTPREDGGGVADTLYPMLSYLTFWMSAGKWAIEGLETRAQLLDSDGLLRNSSDPYLMIREAYFQRHDFLASDGQIAPQQNPNAAAIEDSLDEIDSAK
MGSDKIHHHHHHQIAPAPSTGYNCDLALYSVPQANLLARSLQGDTVADQQYRQLVRELAMELRNCRQQVWPRKMAIWVRLYSCDLRPGGLDSLFDGLQALGYNEVFIETFYDGRVLLPAADNPTVWPSVVAEPGLERVDLLAEAIRKGRERGMSVYAWLFTLNYGYSYSQRSDRQDTLARNGRSESSLEIVSGGAQVFVDPFNPVARQDYQTLLRSVLSRRPDGVLFDYVRYPRGTGAASVMTKVADLLIHTTAARQAWINQLNTPAGQALLTEYLDTGRLSPSDRNQLVLLLGDRLKELNLRQDVDPLWSLAVYHAWRGVVEFVDEAVGTVAQAGLPSGAVFFPFGNARVGQQGWDSRMQPWDRFPNSMEYHPMSYALCGDRHDCVMAEVQRVLEAKPNSIVQPAIAGTWGANFNAHLPLEQRMAALRSTFGDRIDRVSHFSLAWMDPQGERQRQRCRL
MGSDKIHHHHHHQISGDTVKIGFITDMSGLYADIDGPGGVEAIKLAISDMKGTVAGKKIELVYADHQNKADVAASKAREWFDTQGVDMLIGGTNSGTALAMTKVAAEKKKPFIAIGAGTSRISNEDCTPYSIHYAYDTVALANGTGSAVTKAGGKSWYFLTADYAFGQSLQNDTSNVVTKSGGQVLGSVKHPLSASDFSSFLLQAQSSKAQILGLANAGGDTINSIKAANEFGITKTMKLAGLLMFINDIHSLGLNATQGMYMTDSWYWNQSPEARAWSRRFFEKMKRMPSSIQAADYSAAMHFLKAVEAAKTDDGDKVMAQMKAMPINDFYAKGSIRKEDGRGIHDMFLLQVKSQQESTEPWDYFKVVEKIPGEQAFTKLADSKCPLVKK
MGSDKIHHHHHHQSGPLRLEITEGVIEPLPFALPTFLAVGGAEDAAADVSRVIAADLRGTGLFRQIPPDAYISQITNFGAPVAYPDWQAINAQALITGQVEARADGQLVVRFRLFDVFSQAPLGEGLQFVGPADSWRRMAHTVADQVYSRITGEGGYFDTRVAFIAEEGPKNARLKRLAIMDYDGANVQFLTDSRSIVLAPRFSPQGDRILYTSYESGFPQVYIMDVATVQRRPLEAIPAETMTFSPRFSPSGQSVVFSLVDGSNTDIYSLDLATGTRRQLTQAPSIETAPSFSPDGSQIVFESDRSGNQQIYIMPADGGEARRVSAGTGRYGTPVWSPRGDYIAFTKQENGRFHIGVMRTDGSDERLLTSSFLDEGPTWAPNGRVIMFTRETPGDDGAPAVYSVDISGRNLQRVATPGMASDPAWSPLQS
MGSDKIHHHHHHRDMEIGDSGNVEIEMGEAAFVLKTSLSSLETKSLSDAGTLPASMDEAEINNCTLIFFEGTQVSSIMEGLFVNKENYIVKTKDGTKDDWAKVILKVKKPSPYSVMVIANSSKSFAGCQSENNIKDIIQDDKDALVKVGKMDISFDTDFAGYPTIAEALGKPLEIGAIPLSQLTARIELAEFNVSGFQGASVKEKVTVTGVDLLNLNPESYTINEQTHKNATYLSESKTCNVEVYNGVSDLPSTYSFVDNKNLLSFYSFRNLAKAESDQVKMQVRFKIGNSNEERTTRPFVINKEGNILHGVKSGYVYRLVVNMTIIGDKVETELLCYTRDWLNNTISIPMEDN
MGSDKIHHHHHHRPYTPDYEIVPEYTNADTWKAYEAFNEHLLDQNKFIYKSSTADKAAVDRWNGAAAIWCQPTYWDMAMNAYKRAKAEGDTQKEQKFKQLCDDLFAGNKAHYANFDFDDNNENTGWFIYDDIMWWTVTLARAYELFGVEEYLSLSEESFGRVWYGSEKVGDTGSYADPEKGLGGGMFWQWQPIKNPNPNEADHGKMACINFPTVVAALTLYNNVPTGRTESTDSHPSYQTKEQYLAKGKEIYAWAVENLVDVTTGQVADSRHGNGNPAWKDHVYNQASYIGASVLLYKATGEKQYLDNAVMAADYTMNTISGTFDLLPFETGAEQGIYTAVFAQYIAMLVYDCDQTQYIPFVKRNINYGWANRDKTRDICGGDYTKLQVEGDAVESYSASGIPALMLLFPTDK
MGSDKIHHHHHHRWIPGSRDFDSWLVTLHAQLLAEVDYPRELRMAQVMTEGLAQHEALQSAPVTLRVPHFWPEHCSTNVLTMDYVEGHRAASPEVAALPQSARNELGKAMLQLFFAEVFDLGLVQTDPNFGNYLINDDGTELTLLDFGSVFELDETVRTALCDTIVAGLTNDETRLELALVALGCLKPGAGESAKATFKAFIRNLLEPLRPPEALPPEHLNAEGLYCWGHSELVNRTGQQVARSLTNREFAIPSSDFAMVARKLTGVFTFIAVLDAEFNGHDIAAPYLDEVTAGGET

Source: the DeepSol protein solubility set
